# Test results from article PMC11906848, “Rational engineering of a thermostable α-oxoamine synthase biocatalyst expands the substrate scope and synthetic applicability” (Communications Chemistry, 2025).
# Where a chain is given by its changes, count along the chain named. Names may count otherwise.
# B1: ThAOS (Thermus thermophilus HB8; V78A) (protein)
# chain: MSLDLRARVREELERLKREGLYISPKVLEAPQEPVTRVEGREVVNLASNNYLGFANHPYLKEKARQYLEKWGAGSGAARTIAGTFTYHVELEEALARFKGTESALVLQSGFTANQGVLGALLKEGDVVFSDELNHASIIDGLRLTKATRLVFRHADVAHLEELLKAHDTDGLKLIVTDGVFSMDGDIAPLDKIVPLAKKYKAVVYVDDAHGSGVLGEKGKGTVHHFGFHQDPDVVQVATLSKAWAGIGGYAAGARELKDLLINKARPFLFSTSHPPAVVGALLGALELIEKEPERVERLWENTRYFKRELARLGYDTLGSQTPITPVLFGEAPLAFEASRLLLEEGVFAVGIGFPTVPRGKARIRNIVTAAHTKEMLDKALEAYEKVGKRLGIIR
# notes: recombinant in E. coli BL21(DE3), pET28a, TEV-cleavable N-terminal His6 tag; homodimer; active site includes V79 of the other monomer
# B2: ThAOS (Thermus thermophilus HB8; V78G) (protein)
# chain: B1 chain with A78G
# notes: as for B1
# Key:
# ThAOS [1] = biological target: T1, ThAOS (Thermus thermophilus, UniProt Q5SHZ8); assay: X-ray crystal structure (crystal soak), […] Å; UV-vis; format: binding; conditions: covalent PLP:L-Pen thiazolidine adduct; carboxylate chelated by Arg366
# T1 construct: gene TTHA1582; recombinant in E. coli BL21(DE3), pET28a, TEV-cleavable N-terminal His6 tag; homodimer; active site includes V79 of the other monomer
# ThAOS [2] = biological target: T1, ThAOS; assay: DTNB assay of CoASH release; format: biochemical; conditions: 16 mM L-Aba; 1 mM acetyl-CoA; HEPES pH 7.5; 50 °C
# Target sequence in this assay (Q5SHZ8 whole entry): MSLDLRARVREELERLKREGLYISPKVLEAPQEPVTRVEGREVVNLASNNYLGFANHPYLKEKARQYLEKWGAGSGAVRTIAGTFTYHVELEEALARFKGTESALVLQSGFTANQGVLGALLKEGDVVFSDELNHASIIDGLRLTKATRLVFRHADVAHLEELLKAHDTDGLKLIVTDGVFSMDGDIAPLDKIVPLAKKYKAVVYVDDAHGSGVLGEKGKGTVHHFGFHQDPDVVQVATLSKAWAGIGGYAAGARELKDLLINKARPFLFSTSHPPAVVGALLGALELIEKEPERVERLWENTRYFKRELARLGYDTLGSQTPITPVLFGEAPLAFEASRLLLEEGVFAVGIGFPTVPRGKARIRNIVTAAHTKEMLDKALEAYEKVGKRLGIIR
# ThAOS [3] = biological target: T1, ThAOS; assay: UV-vis titration of PLP spectrum; format: binding; conditions: 0-16 mM; external aldimine and some quinonoid formation
# Target sequence in this assay (Q5SHZ8 whole entry): as above
# ThAOS [4] = biological target: T1, ThAOS; assay: UV-vis spectroscopy of purified holoenzyme; format: binding; conditions: covalent; internal aldimine
# Target sequence in this assay (Q5SHZ8 whole entry): as above
# purified protein [5] = substrate: C[C@H](N)C(=O)O; assay: purified protein; conditions: acetyl-CoA co-substrate, HEPES pH 7.5, 50 °C
# purified protein [6] = substrate: N[C@@H](CO)C(=O)O; assay: purified protein; conditions: acetyl-CoA co-substrate, HEPES pH 7.5, 50 °C
# [7] = substrate: CC[C@H](N)C(=O)O; assay: DTNB assay of CoASH release; format: biochemical, Thermus thermophilus; conditions: acetyl-CoA co-substrate, HEPES pH 7.5, 50 °C
# Source text: (§1) DTNB assay of CoASH release on ThAOS | catalytic efficiency (kcat/KM) for all four original amino acid substrates was improved substantially
# [8] = substrate: NCC(=O)O; assay: DTNB assay of CoASH release; format: biochemical, Thermus thermophilus; conditions: acetyl-CoA co-substrate, HEPES pH 7.5, 50 °C
# Source text: as §1
# [9] = substrate: CC[C@H](N)C(=O)O; assay: DTNB assay of CoASH release; format: biochemical, Thermus thermophilus; conditions: acetyl-CoA co-substrate, HEPES pH 7.5, 50 °C; remark: listed apart in the source
# [10] = substrate: NCC(=O)O; assay: DTNB assay of CoASH release; format: biochemical, Thermus thermophilus; conditions: acetyl-CoA co-substrate, HEPES pH 7.5, 50 °C; remark: listed apart in the source
molecule,measurement,setting,value
"CC(C)(S)[C@H](N)C(=O)O [L-Pen, L-penicillamine]","X-ray crystal structure (crystal soak), 1.5 Å; UV-vis",ThAOS [1],The structure of ThAOS V79A PLP:L-Pen complex (PDB: 8S1Y)
CC[C@H](N)C(=O)O [L-Aba],DTNB assay of CoASH release,ThAOS [2],"original set of four amino acid substrates (L-Aba, L-Ala, Gly and L-Ser)"
C[C@H](N)C(=O)O [L-Ala],UV-vis titration of PLP spectrum,ThAOS [3],L-Ala binding leads to a small amount of PLP: L-Ala quinonoid formation
"Cc1ncc(COP(=O)(O)O)c(C=O)c1O [PLP, pyridoxal 5’-phosphate]",UV-vis spectroscopy of purified holoenzyme,ThAOS [4],corresponding to the tautomeric forms of the PLP-bound internal aldimines
B1,Km,purified protein [5],1.59 ± 0.25 mM
same,kcat,purified protein [5],1.23 ± 0.05 s⁻¹
same,Km,purified protein [6],2.52 ± 0.30 mM
same,kcat,purified protein [6],3.81 ± 0.13 s⁻¹
same,Km,[7],3.12 ± 0.35 mM
same,kcat,[7],2.25 ± 0.08 s⁻¹
same,Km,[8],8.36 ± 1.73 mM
same,kcat,[8],3.89 ± 0.32 s⁻¹
B2,Km,purified protein [5],2.46 ± 0.05 mM
same,kcat,purified protein [5],2.39 ± 0.15 s⁻¹
same,Km,purified protein [6],4.28 ± 0.96 mM
same,kcat,purified protein [6],5.74 ± 0.43 s⁻¹
same,Km,[9],0.83 ± 0.15 mM
same,kcat,[9],1.09 ± 0.04 s⁻¹
same,Km,[10],9.52 ± 1.91 mM
same,kcat,[10],5.12 ± 0.43 s⁻¹
